Where a chain is given by its changes, count along the chain named. Ends that are not written are not given here.

The test addresses IGF1 receptor (IGF1R) (UniProt P08069). The test can be described thus: method not stated; in the absence of glucose.

B1: SEQ ID NO: 5 (ligand)
chain: FVDQHLCGSHLVEALYLVCGERGFFYTPKTYDGKGIVEQCCTSICSLYQLENYCG
modifications: ends and bridges not checked; cysteine pairing not given here
The molecule B1 showed a Kd of 30.4 nM.

B2: SEQ ID NO: 7 (ligand)
chain: B1 chain with D3G
modifications: ends and bridges not checked; cysteine pairing not given here
With B2, the Kd is 26.8 nM.

Usually Kd stands for the equilibrium constant for the complex coming apart. A lower Kd goes with tighter binding.

The record behind these values is patent publication US20240343773A1.
